# Measured values taken from PMC10021052, “Novel multivalent S100A8 inhibitory peptides attenuate tumor progression and metastasis by inhibiting the TLR4-dependent pathway” (Cancer Gene Therapy, 2023).
# “Also recorded” adds a separate entry of the source.
# B1: human S100A8 recombinant protein, full length (natural protein)
# chain: MLTELEKALNSIIDVYHKYSLIKGNFHAVYRDDLKKLLETECPQYIRKKGADVWFKELDINTDGAVNFQEFLILVIKMGVAAHKKSHEESHKE
# Experiments:
# [1] = system: tumor cells and macrophages; details: ref [8]; cited from earlier work
# From the text: S100A8 belongs to the S100s family and is characterized by two calcium-binding EF-hand motifs: a carboxyl-terminal EF-hand (high affinity to calcium), and an N-terminal EF-hand (low affinity to calcium) that are connected by a central hinge. Like most S100 proteins, S100A8 can form a heterodimer with S100A9 or can exist as a homodimer or monomer. Vogl et al. originally reported that S100A8-mediated cytokine induction was mediated via TLR4 [5].
# [2] = system: SW480 cells; assay: qPCR, S100A8-mediated IL-8 and VEGF mRNA induction in SW480 cells; assay type: cell-based, human; details: Fig. 2E
# Procedure: SW480 cells were treated with S100A8 in Dulbecco’s Modified Eagle Medium/HamF12 supplemented with 0.1% bovine serum albumin for cytokine induction. Total RNA was extracted using the RNeasy Mini Plus (Qiagen, Hilden, Germany). Complementary DNA was synthesized using the PrimeScript 1st Strand Synthesis kit (Takara Bio, Japan). Quantitative PCR (qPCR) analysis was performed using the PowerUp^TM SYBR^TM Green mixture (Thermo Fisher Scientific) and the StepOnePlus Real Time PCR System (Thermo Fisher Scientific). Gene expression levels were calculated from Ct values, and the relationship between the Ct value and the logarithm of the copy number of a target gene was confirmed to be on a linear line using the corresponding isolated DNA and its serial dilutions as a standard. Thus, the gene expression levels of IL-8 and VEGF were normalized against that of β-actin in each sample. The following primers were used; β-actin, 5′-[…]-3′ and 5′-[…]-3′; IL-8, 5′-[…]-3′ and 5′-[…]-3′; VEGF, 5′-[…]-3′ and 5′-[…]-3′.
# Fig. 2 Identification of S100A8 binding sites to human TLR4/MD-2. […] TLR4/MD-2 recombinant proteins were immobilized to the ELISA plate. After blocking, a full length or deletion mutant of S100A8 was added to the plate. The more detailed methods are described in Materials and Methods. […] B A series of overlapping S100A8 synthetic peptides. The TLR4/MD-2 recombinant proteins were added to each well of peptide immobilized plates. The affinity to TLR4/MD-2 was determined. Data are shown as mean ± SD. C The competitive activity was determined using ELISA. Data are shown as mean ± SD. D The TLR4/MD-2 was mixed with S100A8 with/without the indicated peptides, and immunoprecipitated using an anti-TLR4 antibody. TLR4 or S100A8 was visualized. Similar results were obtained in three independent experiments. […] Total RNAs from SW480 cells with/without treatment of the peptide candidates were extracted and qPCR analysis was performed using relevant primer sets and SYBR green. Relative expression levels were compared. […] TEXT PRINTED IN THE PICTURE: (A) Full length: TLR4/MD-2 binding: + | (A) S100A8-ΔC: TLR4/MD-2 binding: − | (A) S100A8-N: TLR4/MD-2 binding: −
# Fig. 4 Improvement of competitive inhibition activity by divalent peptide3A5. A The binding capacity was measured at the indicated concentration using an ELISA-based assay. Similar results were obtained in three independent experiments. B SW480 cells were pretreated with 2.5 µM of divalent peptide3A5, and then stimulated with human S100A8 recombinant protein. After 30 min, cell lysates were subjected to western blotting using the indicated antibody. The divalent peptide#3 or peptide3A5 reduced the expression of S100A8-mediated IL-8 (C) and VEGF (D) induction. Total RNAs from SW480 cells with/without treatment of the peptide candidates were extracted and qPCR analysis was performed using relevant primer sets and SYBR green. Relative expression levels were compared. Peptide #3 suppresses S100A8-mediated IL-8(E) and VEGF (F) secretion in SW480 cells.
# [3] = system: PD-L1 in macrophages; parameters: method as in PMID 32198140; details: ref [29]; cited from earlier work
# [4] = target: human TLR4/MD-2 complex (human) (UniProt O00206)
# human TLR4/MD-2 complex (human), sequence (O00206 24-839, chain 1 of 2): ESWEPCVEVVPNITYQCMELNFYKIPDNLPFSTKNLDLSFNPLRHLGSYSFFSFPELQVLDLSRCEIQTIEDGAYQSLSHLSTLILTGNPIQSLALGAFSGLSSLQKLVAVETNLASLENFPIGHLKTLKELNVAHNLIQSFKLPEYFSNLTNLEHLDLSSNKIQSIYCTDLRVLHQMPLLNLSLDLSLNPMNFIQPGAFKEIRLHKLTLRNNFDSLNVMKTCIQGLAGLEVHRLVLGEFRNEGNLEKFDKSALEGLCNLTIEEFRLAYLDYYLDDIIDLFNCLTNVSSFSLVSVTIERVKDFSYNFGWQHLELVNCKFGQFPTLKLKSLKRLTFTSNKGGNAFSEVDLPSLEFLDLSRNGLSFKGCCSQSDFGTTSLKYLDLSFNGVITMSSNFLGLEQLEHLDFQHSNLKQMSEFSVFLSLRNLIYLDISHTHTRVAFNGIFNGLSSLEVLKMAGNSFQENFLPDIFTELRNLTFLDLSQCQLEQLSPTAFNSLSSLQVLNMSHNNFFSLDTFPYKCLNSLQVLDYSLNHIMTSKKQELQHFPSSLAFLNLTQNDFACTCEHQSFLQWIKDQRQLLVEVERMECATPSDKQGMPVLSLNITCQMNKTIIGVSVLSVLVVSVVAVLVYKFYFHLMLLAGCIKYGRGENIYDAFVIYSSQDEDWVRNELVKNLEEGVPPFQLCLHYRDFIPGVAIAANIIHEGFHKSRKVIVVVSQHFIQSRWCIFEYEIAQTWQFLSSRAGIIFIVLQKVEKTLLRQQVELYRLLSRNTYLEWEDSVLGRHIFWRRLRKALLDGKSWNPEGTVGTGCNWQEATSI
# human TLR4/MD-2 complex (human), sequence (Q9Y6Y9 19-160, chain 2 of 2, further chain): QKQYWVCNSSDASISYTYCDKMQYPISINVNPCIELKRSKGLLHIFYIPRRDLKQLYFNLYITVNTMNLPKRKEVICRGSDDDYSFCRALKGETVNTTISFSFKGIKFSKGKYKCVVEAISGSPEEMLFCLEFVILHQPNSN
# [5] = system: p38 and p65 (NF-κB) in SW480 cells; details: ref [8]; cited from earlier work
# From the text: TLR4/MD-2 dimerizes upon ligand binding. To attempt the inhibitory peptide fitted into dimerized forms, we generated a divalent peptide of peptide3A5 using Fmoc-Lys (Fmoc)-OH to form two branches in the peptide chain. […] We then examined the effect of divalent peptide3A5 on TLR4/MD-2 downstream signaling. […] Pretr ...
# [6] = system: MDSCs; assay: In vivo S100A8 stimulation, MDSC recruitment to lungs; parameters: species or system C57BL/6J mice; details: recombinant S100A8 i.v., 4 h; *P < 0.05 vs control
# Procedure: Balb nu/nu or C57BL/6J mice were purchased from Clea Japan Inc. (Tokyo, Japan). Mice were used for experiments at 2–3 months of age. […] For in vivo S100A8 stimulation, C57BL/6J mice were intravenously injected with mammalian-derived S100A8. Four hours after the i.v. injection, mice were sacrificed, and minced mouse lungs were digested with collagenase/dispase/DNase solution. Collected cells were incubated with anti-CD11b-PE (BD Bioscience), anti-Ly6G-FITC (BD Bioscience), and anti-Ly6C-APC (BD Bioscience) antibodies, and analyzed by a flow cytometry (Cytomics FC500; Beckman Coulter, Brea, CA, USA). […] The mice were sacrificed after 16 h, and minced mouse lungs were digested with collagenase/dispase/DNase solution. The recruitment of MDSCs or PKH-26 labeled tumor cells in the lungs was determined by flow cytometry (CytoFlex; Beckman Coulter).
# [7] = system: S100A8-mediated cell migration; details: ref [8]; cited from earlier work
# From the text: VEGF is another NFκB-mediated re ...
molecule,measurement,setting,value
B1,induction of inflammatory cytokines/chemokines by S100A8,[1],induced inflammatory cytokines/chemokines in a TLR4-dependent manner
same,IL-8 production induced by S100A8,[2],induced IL-8 production
same,PD-L1 expression in macrophages,[3],upregulated PD-L1 in macrophages via a TLR4-dependent pathway
same,S100A8-induced phosphorylation of p38 in SW480 cells pretreated with 2.5 µM divalent peptide3A5: fold inhibition,[4],1.3 fold
same,S100A8-induced phosphorylation of p65 (NF-κB) in SW480 cells pretreated with 2.5 µM divalent peptide3A5: fold inhibition,[4],1.7 fold
same,phosphorylation of p38 MAP kinase / NF-κB activation by S100A8,[5],"induced phosphorylation of p38 MAP kinase, followed by activation of NF-κB signaling"
same,recruitment of MDSCs from bone marrow to lungs,[6],increased the recruitment of MDSCs from the bone marrow to the lungs; also recorded: induces pulmonary recruitment of MDSCs from bone marrow
same,cell migration induced by S100A8,[7],induces cell migration in a TLR4-dependent manner
